Experiments:
Experiment in all cases: BLI; 25 nM WDR44 (334–389) wild type or mutant immobilised on anti-penta-His tips, […] nM Rab11; responses normalised to the mean wildtype response; 30 °C; 20 mM Hepes pH 7.5, 150 mM NaCl, 1 mM MgCl2, bovine serum albumin, 0.002% Tween-20
[1] = molecular target: Strep-His WDR44 (334–389) I359A (human) (UniProt Q5JSH3)
[2] = molecular target: Strep-His WDR44 (334–389) L370A (human) (UniProt Q5JSH3)
[3] = molecular target: Strep-His WDR44 (334–389) K360E (human) (UniProt Q5JSH3)
Chain of Strep-His WDR44 (334–389) K360E (human) (Q5JSH3 334-389 K360E): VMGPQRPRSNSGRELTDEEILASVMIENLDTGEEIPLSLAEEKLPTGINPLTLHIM

[4] = molecular target: Strep-His WDR44 (334–389) L354A (human) (UniProt Q5JSH3)
Chain of Strep-His WDR44 (334–389) L354A (human) (Q5JSH3 334-389 L354A): as the sequence (Q5JSH3 334-389 K360E) above, with L21A, E27K counted along it

Chain of Strep-His WDR44 (334–389) L370A (human) (Q5JSH3 334-389 L370A): as the sequence (Q5JSH3 334-389 K360E) above, with E27K, L37A counted along it
Chain of Strep-His WDR44 (334–389) I359A (human) (Q5JSH3 334-389 I359A): as the sequence (Q5JSH3 334-389 K360E) above, with I26A, E27K counted along it

percent decrease in complex formation against wild type [1]: > 95%
percent decrease in complex formation against wild type [2]: > 95%
percent decrease in complex formation against wild type [3]: > 95%
percent decrease in complex formation against wild type [4]: > 95%
Substance: Rab11a (GTPγS-loaded) (from UniProt P62491 1-216) (natural protein)
